± gives the uncertainty stated by the source.

B1: Far upstream element-binding protein 2, residues 142 to 214; numbered along this chain, Q92945 (parent)
chain: RTSMTEEYRVPDGMVGLIIGRGGEQINKIQQDSGCKVQISPDSGGLPERSVSLTGAPESVQKAKMMLDDIVSR

The variants in the data set derive from B1. The experiment in a line: abundance fitness (aPCA) (normalised: wild type 0, dead -1); higher = more abundant; growth selection in yeast, the domain comes from the species named. The settings on record: Homo sapiens.
Regarding RTSMTEEYRVPDGMVGLIIGRGGEQINKIQQDSGCKVQISPDSGGLPERSVSLTGAPESVWKAKMMLDDIVSR [Q61W], the abundance fitness is -0.176 ± 0.058.
For RTSMTEEYRVPDGMVGLIIGRGGEQINKIQQDSGCKVQISPDSGGLPERSVSLTGAPESVQKWKMMLDDIVSR [A63W], the abundance fitness is -1.55 ± 0.2.
On to RTSMTEEYRVPDGMVGLIIGRGGEQINKIQQDSGCKVQISPDSGGLPERSVSLTGAPESVQKHKMMLDDIVSR [A63H], for which the abundance fitness was -0.528 ± 0.21.
Then RTSMTEEYRVPDGMVGLIIGRGGEQINKIQQDSGCKVQISPDSGGLPERSVSLTGAPESVQKGKMMLDDIVSR [A63G], with -0.447 ± 0.044.
RTSMTEEYRVPDGMVGLIIGRGGEQINKIQQDSGCKVQISPDSGGLPERSVSLTGAPESVQKLKMMLDDIVSR [A63L]: the abundance fitness is -1.46 ± 0.13.
For RTSMTEEYRVPDGMVGLIIGRGGEQINKIQQDSGCKVQISPDSGGLPERSVSLTGAPESVQKCKMMLDDIVSR [A63C], the abundance fitness is -0.222 ± 0.082.
In the case of RTSMTEEYRVPDGMVGLIIGRGGEQINKIQQDSGCKVQISPDSGGLPERSVSLTGAPESVQKYKMMLDDIVSR [A63Y], the abundance fitness is -0.811 ± 0.29.
Then RTSMTEEYRVPDGMVGLIIGRGGEQINKIQQDSGCKVQISPDSGGLPERSVSLTGAPESVQKRKMMLDDIVSR [A63R], with -0.865 ± 0.054; and RTSMTEEYRVPDGMVGLIIGRGGEQINKIQQDSGCKVQISPDSGGLPERSVSLTGAPESVQKQKMMLDDIVSR [A63Q], with -0.654 ± 0.085.
As to RTSMTEEYRVPDGMVGLIIGRGGEQINKIQQDSGCKVQISPDSGGLPERSVSLTGAPESVQKTKMMLDDIVSR [A63T], the abundance fitness is -0.69 ± 0.078.
For RTSMTEEYRVPDGMVGLIIGRGGEQINKIQQDSGCKVQISPDSGGLPERSVSLTGAPESVQKPKMMLDDIVSR [A63P] the value was -0.648 ± 0.066; for RTSMTEEYRVPDGMVGLIIGRGGEQINKIQQDSGCKVQISPDSGGLPERSVSLTGAPESVQKSKMMLDDIVSR [A63S], -0.782 ± 0.066.
Then RTSMTEEYRVPDGMVGLIIGRGGEQINKIQQDSGCKVQISPDSGGLPERSVSLTGAPESVQKVKMMLDDIVSR [A63V], with -0.748 ± 0.062.
Then RTSMTEEYRVPDGMVGLIIGRGGEQINKIQQDSGCKVQISPDSGGLPERSVSLTGAPESVQKNKMMLDDIVSR [A63N], with -0.661 ± 0.18; and RTSMTEEYRVPDGMVGLIIGRGGEQINKIQQDSGCKVQISPDSGGLPERSVSLTGAPESVQKMKMMLDDIVSR [A63M], with -1.24 ± 0.13; and RTSMTEEYRVPDGMVGLIIGRGGEQINKIQQDSGCKVQISPDSGGLPERSVSLTGAPESVQKDKMMLDDIVSR [A63D], with -0.666 ± 0.14.
In the case of RTSMTEEYRVPDGMVGLIIGRGGEQINKIQQDSGCKVQISPDSGGLPERSVSLTGAPESVQKACMMLDDIVSR [K64C], the abundance fitness is -0.554 ± 0.069.
For RTSMTEEYRVPDGMVGLIIGRGGEQINKIQQDSGCKVQISPDSGGLPERSVSLTGAPESVQKAEMMLDDIVSR [K64E] the value was -0.653 ± 0.054.
Then RTSMTEEYRVPDGMVGLIIGRGGEQINKIQQDSGCKVQISPDSGGLPERSVSLTGAPESVQKAAMMLDDIVSR [K64A], with -0.558 ± 0.045; and RTSMTEEYRVPDGMVGLIIGRGGEQINKIQQDSGCKVQISPDSGGLPERSVSLTGAPESVQKADMMLDDIVSR [K64D], with -0.567 ± 0.067; and RTSMTEEYRVPDGMVGLIIGRGGEQINKIQQDSGCKVQISPDSGGLPERSVSLTGAPESVQKAGMMLDDIVSR [K64G], with -0.757 ± 0.041.
For RTSMTEEYRVPDGMVGLIIGRGGEQINKIQQDSGCKVQISPDSGGLPERSVSLTGAPESVQQAKMMLDDIVSR [K62Q] the value was -0.048 ± 0.052.
With RTSMTEEYRVPDGMVGLIIGRGGEQINKIQQDSGCKVQISPDSGGLPERSVSLTGAPESVQIAKMMLDDIVSR [K62I], the abundance fitness was -0.126 ± 0.085.
As to RTSMTEEYRVPDGMVGLIIGRGGEQINKIQQDSGCKVQISPDSGGLPERSVSLTGAPESVQDAKMMLDDIVSR [K62D], the abundance fitness is -0.663 ± 0.076.
Then RTSMTEEYRVPDGMVGLIIGRGGEQINKIQQDSGCKVQISPDSGGLPERSVSLTGAPESVQWAKMMLDDIVSR [K62W], with -0.541 ± 0.053.
For RTSMTEEYRVPDGMVGLIIGRGGEQINKIQQDSGCKVQISPDSGGLPERSVSLTGAPESVQGAKMMLDDIVSR [K62G] the value was -0.51 ± 0.043.
For RTSMTEEYRVPDGMVGLIIGRGGEQINKIQQDSGCKVQISPDSGGLPERSVSLTGAPESVQMAKMMLDDIVSR [K62M] the value was -0.068 ± 0.057; for RTSMTEEYRVPDGMVGLIIGRGGEQINKIQQDSGCKVQISPDSGGLPERSVSLTGAPESVQNAKMMLDDIVSR [K62N], -0.449 ± 0.094; for RTSMTEEYRVPDGMVGLIIGRGGEQINKIQQDSGCKVQISPDSGGLPERSVSLTGAPESVQLAKMMLDDIVSR [K62L], -0.169 ± 0.043.
Turning to RTSMTEEYRVPDGMVGLIIGRGGEQINKIQQDSGCKVQISPDSGGLPERSVSLTGAPESVQSAKMMLDDIVSR [K62S], the abundance fitness is -0.194 ± 0.042.
Consider RTSMTEEYRVPDGMVGLIIGRGGEQINKIQQDSGCKVQISPDSGGLPERSVSLTGAPESVQAAKMMLDDIVSR [K62A], for which the abundance fitness is -0.173 ± 0.044.
Then RTSMTEEYRVPDGMVGLIIGRGGEQINKIQQDSGCKVQISPDSGGLPERSVSLTGAPESVQFAKMMLDDIVSR [K62F], with -0.625 ± 0.098; and RTSMTEEYRVPDGMVGLIIGRGGEQINKIQQDSGCKVQISPDSGGLPERSVSLTGAPESVQTAKMMLDDIVSR [K62T], with -0.204 ± 0.05.
For RTSMTEEYRVPDGMVGLIIGRGGEQINKIQQDSGCKVQISPDSGGLPERSVSLTGAPESVQYAKMMLDDIVSR [K62Y] the value was -0.278 ± 0.098; for RTSMTEEYRVPDGMVGLIIGRGGEQINKIQQDSGCKVQISPDSGGLPERSVSLTGAPESVQEAKMMLDDIVSR [K62E], -0.286 ± 0.057.
Then RTSMTEEYRVPDGMVGLIIGRGGEQINKIQQDSGCKVQISPDSGGLPERSVSLTGAPESVQCAKMMLDDIVSR [K62C], with -0.288 ± 0.062; and RTSMTEEYRVPDGMVGLIIGRGGEQINKIQQDSGCKVQISPDSGGLPERSVSLTGAPESVQVAKMMLDDIVSR [K62V], with -0.127 ± 0.046.
For RTSMTEEYRVPDGMVGLIIGRGGEQINKIQQDSGCKVQISPDSGGLPERSVSLTGAPESVQHAKMMLDDIVSR [K62H], the abundance fitness was -0.231 ± 0.07.
